Source: the supplement of paper PMC10724198
± gives the standard deviation of the averaged measurements.

system: Saccharomyces cerevisiae; assay: protein stability index of tFT-peptide fusion (C-terminal peptide) (PSI (0-1 scale)); higher = more stable (slower turnover); conditions: genetic background: wild type; temperature: 30 C
Procedure: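 Multiplexed protein stability (MPS) profiling in S. cerevisiae. Random 12-aa peptides (tFT-X12 library) are fused to the C-terminus of a sfGFP-mCherry tandem fluorescent timer, after mCherry and a GGGS linker. Cells are FACS-sorted into 8 mCherry/sfGFP bins and deep-sequenced. The protein stability index (PSI) is the read-weighted bin average, scaled from 0 (unstable) to 1 (stable). Only peptides with >10 reads are reported; cells were grown at 30 °C in SC-His with glucose.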
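Note: PSI is a weighted mean of sequencing reads over stability bins, variants kept only with over 10 reads, mCherry proximal and sfGFP distal, peptide attached via GGGS linker.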

Sequence	protein stability index
ARHESRPTHSAQ	0.6924 ± 0.0046
ARNMGLFVFNLR	0.6783 ± 0.0043
ARPAPHRSRRPS	0.68 ± 0.013
ARPAPPLPAIPL	0.663 ± 0.043
ARPPRASRISSL	0.81 ± 0.044
ARRGATRGHAHV	0.684 ± 0.046
ARSAGITSPSKD	0.788 ± 0.12
ARSPLTIGLYPF	0.6915 ± 0.0016
ARSSHVLQRSKV	0.634 ± 0.018
ARVLVLMNGVCV	0.592 ± 0.032
ASCLSPPSPFPR	0.653 ± 0.013
ASLDTALVHITL	0.622 ± 0.0064
ASLIGHLKATSP	0.672 ± 0.014
ASLLLVFSPPIS	0.703 ± 0.043
ASNEPQRQELGS	0.693 ± 0.018
ASPSAPPRPPTP	0.697 ± 0.013
ASRADSALGITV	0.727 ± 0.055
ASRSGVPGVRVG	0.685 ± 0.027
ASRYPVPLQPHH	0.6982 ± 0.0044
ASSFEGVWCTGC	0.721 ± 0.0093
ASSGGCVPTLPL	0.68 ± 0.0078
ASSLKSTQVSGV	0.72769 ± 0.00011
ASSMLPVCLVTL	0.588 ± 0.056
ASSPSLSSPPTL	0.7106 ± 0.0051
ASSVLLIAQLQS	0.619 ± 0.0054

Sequence	protein stability index
ATDCHVYRPPDL	0.6941 ± 0.0013
ATHEEGRVRCGV	0.709 ± 0.078
ATIRSSQGFKIY	0.612 ± 0.013
ATIYTAATTYHV	0.71342 ± 0.00066
ATPNRSKNKHDT	0.679 ± 0.0011
ATRSTLHDSMVS	0.714 ± 0.059
ATSPPGLLAQPA	0.663 ± 0.0017
ATTQLPPPGGMC	0.695 ± 0.024
ATYNRPPPPGLD	0.682 ± 0.068
ATYTTQQLPNYH	0.685 ± 0.011
AVCLLRLDRSRA	0.665 ± 0.027
AVERGGRGRVVG	0.639 ± 0.04
AVFLGGLLVSRW	0.682 ± 0.24
AVGFVVHNSLKK	0.739 ± 0.017
AVGGGGRLMCGV	0.645 ± 0.053
AVGGGVVGQGWV	0.604 ± 0.012
AVGGWRAGGGGG	0.731 ± 0.04
AVLRVCHVEVVP	0.634 ± 0.031
AVNFESSHPICA	0.58 ± 0.0073
AVPPQLAPPRPL	0.679 ± 0.037
AVPSGLPLMFPR	0.662 ± 0.045
AVSAGQASPGRA	0.681 ± 0.061
AVSLWAIFPLYT	0.611 ± 0.015
AVVVCGGGWWWA	0.746 ± 0.094
AWCLGVGESRPH	0.739 ± 0.035

Sequence	protein stability index
AWECCFLGRSGV	0.846 ± 0.075
AWEETISVIGVM	0.711 ± 0.048
AWGARWVCVMGG	0.626 ± 0.027
AWGGELGATSGG	0.711 ± 0.0094
AWGPGRGGGGDA	0.677 ± 0.01
AWLCSVFLLSLS	0.533 ± 0.0076
AWVVFGLRFGFD	0.534 ± 0.053
AYFGSCCCLPLG	0.69 ± 0.039
AYFLPPLPTTPP	0.692 ± 0.054
AYKGTPTCKTRR	0.689 ± 0.1
AYPRLRPSPSPH	0.7212 ± 0.0066
CAHKRTPRLGPE	0.66 ± 0.077
CAITAPINRSWN	0.702 ± 0.009
CCCVGRGVGSRF	0.703 ± 0.0054
CCDWLFCVGVAG	0.558 ± 0.0079
CCFFPPPGRTRQ	0.676 ± 0.015
CCLSVFSYESLA	0.709 ± 0.016
CCYCLTVCRWFT	0.571 ± 0.038
CDDGLIVNKVDS	0.665 ± 0.0092
CDFASTDSLLGG	0.702 ± 0.013
CDSSSVGYLVVR	0.655 ± 0.014
CEAGAGTGGADL	0.674 ± 0.018
CEFGGEEINQTV	0.6951 ± 0.0015
CEPSLPGRSRRA	0.753 ± 0.056
CESASGAAWLGG	0.723 ± 0.029

Sequence	protein stability index
CESEAGGGVTLC	0.669 ± 0.025
CFAFRPLLPSSP	0.686 ± 0.0086
CFASLLSFCPLV	0.695 ± 0.065
CFCDDRPSLRRV	0.729 ± 0.019
CFCPWFGRVCLG	0.5142 ± 0.0014
CFGMMVFFHRVI	0.534 ± 0.076
CFLFLTVSSREG	0.534 ± 0.03
CFPSFVTFSSLF	0.7722 ± 0.0041
CFRFPILTSHFY	0.592 ± 0.026
CFTPYNPSPLLS	0.715 ± 0.021
CFWSVIGVQFEV	0.629 ± 0.0095
CFYSFWQVTRFL	0.477 ± 0.062
CGEEVGGGVMIW	0.689 ± 0.015
CGKPRIHEGRLM	0.691 ± 0.02
CGLSYSISVNMR	0.627 ± 0.02
CGSGVAVGVLVL	0.6 ± 0.038
CGSNSSLQECGV	0.679 ± 0.11
CGSVERAEKGHI	0.662 ± 0.025
CGVEERRIGGVC	0.725 ± 0.034
CGVHQSRATPMS	0.663 ± 0.032
CGWTATRTCGLV	0.7541 ± 0.0063
CHMSLDGPLLGF	0.728 ± 0.2
CHVRSSILINRT	0.65 ± 0.1
CIITHSQNKLNT	0.724 ± 0.059
CKGIGRGGGVVS	0.607 ± 0.051

Sequence	protein stability index
CKGSGLGGGVVS	0.583 ± 0.017
CKIDGGIIRTCR	0.676 ± 0.023
CKTYPTKALVVE	0.693 ± 0.0097
CLAAHARFSLRL	0.65 ± 0.05
CLALLSYLGFTF	0.675 ± 0.069
CLCYAWVPAPLF	0.604 ± 0.018
CLGPGTFLLFFV	0.5952 ± 0.0026
CLGPGVLVGCVC	0.402 ± 0.16
CLLLGDALGYYG	0.683 ± 0.033
CLLSWVLDCFLV	0.548 ± 0.024
CLPHSLPHPPPH	0.6791 ± 0.0056
CLRLAFPSGPCI	0.683 ± 0.098
CLSCLFFRVFAD	0.573 ± 0.08
CLSLPFSLFPLM	0.619 ± 0.068
CLYVGSRPPRSA	0.71 ± 0.031
CLYVTFFLPCIL	0.491 ± 0.016
CMFSSTSSTNVN	0.731 ± 0.085
CMGSDKAGKSVA	0.681 ± 0.016
CNLVCFRRFLYR	0.62 ± 0.041
CNTPGLSHELLH	0.786 ± 0.11
CPAAWSLPCRPP	0.6599 ± 0.0018
CPCASEYIAFTL	0.701 ± 0.018
CPDSFARSAVLS	0.673 ± 0.074
CPGLYVRAYGHC	0.613 ± 0.049
CPLAAGSFSSLS	0.6608 ± 0.0009

Sequence	protein stability index
CPNFYPARNSRL	0.696 ± 0.2
CPPPIPPSRPPS	0.666 ± 0.067
CPPSPFPPPLPR	0.767 ± 0.094
CPTHPLFLDSYV	0.676 ± 0.026
CQGHFAAKTEKI	0.684 ± 0.019
CQQCLATYNKGP	0.708 ± 0.16
CQQIKKNKKIKN	0.661 ± 0.0026
CQRDYLFKSRLP	0.639 ± 0.069
CQSRLPSTKNRH	0.695 ± 0.015
CQWGGWGVGVGG	0.761 ± 0.061
CQYSRRRRQELH	0.65 ± 0.075
CRGEGGRTVING	0.634 ± 0.063
CRGGWKCGQEKG	0.635 ± 0.014
CRGLRRSLGSIL	0.682 ± 0.063
CRGYRFLSEMKV	0.645 ± 0.07
CRLANEIMYDKN	0.685 ± 0.014
CRLPLSTIRARP	0.724 ± 0.047
CRPFGVSCHIRV	0.739 ± 0.17
CRRSSRIKHILL	0.603 ± 0.029
CRTIILCLLTNL	0.498 ± 0.024
CRVAFGFMSRFV	0.729 ± 0.067
